Test system: Bacillus subtilis
Assay: cleaved RNA product abundance (RNA/gDNA barcode ratio) relative to median wild-type variant (ratio to wild type); higher = more accumulation of the downstream cleavage product
Details: cleavage site: cggR-gapA (positions -7 to +36 mutated)
Experimental: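 MPRA in B. subtilis. Mutagenized RNase Y cleavage-site regions (9% mutation rate) were inserted into a barcoded reporter mRNA (truncated aprE or tetM). Cells were grown in LB at 37°C to OD600 0.3. The cleaved RNA isoform was gel-purified and its barcodes counted; the RNA:gDNA barcode ratio was normalised to the median wild-type variant, and the median over barcodes is reported per variant. The printed sequence is the variable window only; the reporter flanks are not printed.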

[1] = experiment (reporter, strain, medium): exp 4a: truncated aprE reporter, strain BJT201 with 2% xylose (RNase J1 expressed)
[2] = experiment (reporter, strain, medium): exp 2b: truncated aprE reporter, strain BJT200

| Sequence | cleaved RNA product abundance [1] | cleaved RNA product abundance [2] | cleaved RNA product abundance (experiment (reporter, strain, medium): exp 6: tetM reporter, strain 168) |
| --- | --- | --- | --- |
| ACAGACGAAGGAGCCGCAAAGAACTTATTAAGGGATGAATAATCCCTCCATATAAATATCTCTCACTTATTTAAA | 0.28 | – | – |
| ACAGACGAAGGAGCCGCAAAGAACTTATTAAGGGATGAATAATCCCTCGATATAAATATCTCTCACTTATTTAAA | 0.269 | – | – |
| ACAGACGAAGGAGCCGCAAAGAACTTATTAAGGGATGAATAATCCCTCTATATAAATATCTCTCACTTATTTAAA | 0.332 | – | – |
| ACAGACGAAGGAGCCGCAAAGAACTTATTAAGGGATGAATAATCCCTGAATATAAATATCTCTCACTTATTTAAA | 0.213 | 0.264 | – |
| ACAGACGAAGGAGCCGCAAAGAACTTATTAAGGGATGAATAATCCCTTAATATAAATATCTCTCACTTATTTAAA | 0.369 | – | 0.271 |
| ACAGACGAAGGAGCCGCAAAGAACTTATTAAGGGATGAATAATCCGTCAATATAAATATCTCTCACTTATTTAAA | 0.155 | – | – |
| ACAGACGAAGGAGCCGCAAAGAACTTATTAAGGGATGAATAATCCTTCAATATAAATATCTCTCACTTATTTAAA | 0.342 | – | – |
| ACAGACGAAGGAGCCGCAAAGAACTTATTAAGGGATGAATAATCTCTCAATATAAATATCTCTCACTTATTTAAA | 0.418 | – | – |
| ACAGACGAAGGAGCCGCAAAGAACTTATTAAGGGATGAATAATTCATCAATATAAATATCTCTCACTTATTTAAA | 0.372 | – | – |
| ACAGACGAAGGAGCCGCAAAGAACTTATTAAGGGATGAATAATTCCTCAATATAAATATCTCTCACTTATTTAAA | 0.32 | 0.315 | – |
| ACAGACGAAGGAGCCGCAAAGAACTTATTAAGGGATGAATCATCCCTCAATATAAATATCTCTCACTTATTTAAA | 0.36 | – | – |
| ACAGACGAAGGAGCCGCAAAGAACTTATTAAGGGATGAATGATCCCTCAATATAAATATCTCTCACTTATTTAAA | 0.282 | – | – |
| ACAGACGAAGGAGCCGCAAAGAACTTATTAAGGGATGAATTATCCCACAATATAAATATCTCTCACTTATTTAAA | 0.17 | – | – |
| ACAGACGAAGGAGCCGCAAAGAACTTATTAAGGGATGAATTATCCCTCAATATAAATATCTCTCACTTATTTAAA | 0.31 | 0.284 | – |
| ACAGACGAAGGAGCCGCAAAGAACTTATTAAGGGATGACTAATCCCTCAATATAAATATCTCTCACTTATTTAAA | 0.382 | – | – |
| ACAGACGAAGGAGCCGCAAAGAACTTATTAAGGGATGAGTAATCCCTCAATATAAATATCTCTCACTTATTTAAA | 0.421 | – | – |

| Sequence | cleaved RNA product abundance [1] | cleaved RNA product abundance [2] | cleaved RNA product abundance (experiment (reporter, strain, medium): exp 6: tetM reporter, strain 168) |
| --- | --- | --- | --- |
| ACAGACGAAGGAGCCGCAAAGAACTTATTAAGGGATGTATAATCCCTCAATATAAATATCTCTCACTTATTTAAA | 0.637 | – | – |
| ACAGACGAAGGAGCCGCAAAGAACTTATTAAGGGATTAATAATCCCTCAATATAAATATCTCTCACTTATTTAAA | 0.621 | – | – |
| ACAGACGAAGGAGCCGCAAAGAACTTATTAAGGGGTGAATAATCCCTCAATATAAATATCTCTCACTTATTTAAA | 0.411 | – | – |
| ACAGACGAAGGAGCCGCAAAGAACTTATTAAGGGTTGAATAATCCCTCAATATAAATATCTCTCACTTATTTAAA | 0.232 | 0.218 | – |
| ACAGACGAAGGAGCCGCAAAGAACTTATTAAGGTATGAATAATCCCTCAATATAAATATCTCTCACTTATTTAAA | 0.108 | 0.0959 | – |
| ACAGACGAAGGAGCCGCAAAGAACTTATTAAGTGATGAATAATCCCTCAATATAAATATCTCTCACTTATTTAAA | 0.0735 | – | – |
| ACAGACGAAGGAGCCGCAAAGAACTTATTAATGGATGAATAATCCCTCAATATAAATATCTCTCACTTATTTAAA | 0.142 | 0.102 | – |
| ACAGACGAAGGAGCCGCAAAGAACTTATTACGGGATGAATAATCCCTCAATATAAATATCTCTCACTTATTTAAA | 0.248 | – | – |
| ACAGACGAAGGAGCCGCAAAGAACTTATTATGGGATGAATAATCCCTCAATATAAATATCTCTCACTTATTTAAA | 0.233 | – | – |
| ACAGACGAAGGAGCCGCAAAGAACTTATTCAGGGATGAATAATCCCTCAATATAAATATCTCTCACTTATTTAAA | 0.525 | – | – |
| ACAGACGAAGGAGCCGCAAAGAACTTATTTAGGGATGAATAATCCCTCAATATAAATATCTCTCACTTATTTAAA | 0.321 | 0.442 | – |
| ACAGACGAAGGAGCCGCAAAGAACTTTTTAAGGGATGAATAATCCCTCAATATAAATATCTCTCACTTATTTAAA | – | 0.204 | – |
| ACAGACGAAGGAGCCGCAAAGAAGAAATTAAGGGATGAATAATCCCTCAATATAAATATCTCTCACTTATTTAAA | 0.185 | 0.171 | – |
| ACAGACGAAGGAGCCGCAAAGAAGAAATTAAGGGATGAATAATTCCTCAATATAAATATCTCTCACTTATTTAAA | 0.129 | – | – |
| ACAGACGAAGGAGCCGCAAAGAAGATAATAAGGGATGAATAATCCCTCAATATAAATATCTCTCACTTATTTAAA | 0.227 | – | – |
| ACAGACGAAGGAGCCGCAAAGAAGATACTAAGGGATGAATAATCCCTCAATATAAATATCTCTCACTTATTTAAA | – | 0.0772 | – |
